In the nanobody polyreactivity screen of Harvey et al. (2022):

Assay: yeast display, Sf9 membrane polyspecificity reagent, FACS + sequencing; frameworks hold sequencing errors
Procedure, shortened: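 Genes from sorted yeast were amplified by colony PCR, read by MiSeq 2 × 250 sequencing and filtered on CDR length. These cells carried a synthetic nanobody library in Saccharomyces cerevisiae BJ5465 and were sorted by FACS into low and high (top ~1%) gates on anti-HA and streptavidin fluorescence. Polyreactivity is labelled according to the gate of origin.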

Sequence | polyreactivity (PSR sort gate)
QVQLVESGGGLVLAGGSLRLSCPASGSIFGGYAMGWYRQAHGKERELVAAISYRGASTYYADSVKGRFTISRDNAKNTVYLQMNSLKPEDTAVYYCAVAARTRARVLYGYDYWGQGTQVTVSS | low polyreactivity
QVQLVESGGGLVPAGGSLRLSCAASGFIFHGYAIGWYREAPGKEMELVAAISGTGGSTYYADSVKGRFTISRDNAKNTVYLQMNSLKPEDTAVYYCNARRVRSDRRGGDYWGQGTQVTVSS | high polyreactivity
QVQLVESGGGLVPAGGSLRLSCAASGLTFGRYAMRSYRQAPGKEREMVARISRSGGRTYYADSVKGRFTISRDNAKNTVYLQMNSLKPEDTAVYYCAATGSYYGGDHDYWGQGTQVTVSS | high polyreactivity
QVQLVESGGGLVPAGGSLRLSCAASGLTIYHYAMGWYRQAPGKERELVAAISYSGGSTYYADSVKGRFTISRDNAKNTVYLQMNSLKPEDTAVYYCAAYARHYGTSSLRYDYWGQGTQVTVSS | high polyreactivity
QVQLVESGGGLVPAGGSLRLSCAASGRIYARNAMGWYRKAPGKERDLVAAISSRGSSTYYADSVKGRFTISRDTAKNTVSLQMNSLKPEDTAVYYCNAYYSVYPPGYDYWGQGPQVTVSS | high polyreactivity
QVQLVESGGGLVPAGGSLRLSCAASGRSLSRYTMGWYRQAPGKERELVAAISTSGSTYYADSVKGRFTISRDNAKNTVYLQMNSLKPEDTAVYFCNAVRRYLQYATGYAYWGQGTQVTVSS | high polyreactivity
QVQLVESGGGLVPAGGSLRLSCAASGRTFRFNAMGWYRQAPGKERELVAAITKSSGSTDYADSVKGRFTISRDNAKNTVYLQMNSLKPEDSAVYYCAVRIFVPYYSDWSFPTQYNYWGQGTQLTVSS | high polyreactivity
QVQLVESGGGLVPAGGSLRLSCAGSGFIFYKYAMGWYRQAPGKERELVAAITRGGSTNYADSVKGRFTSSRDKAKNTVYLQMNSLKPEDTAVYYCAAGNRYGVRQLYQIVTRYYWGQGTQVTVSS | high polyreactivity
QVQLVESGGGLVPAGGSLRLSWAASGRTFTRNAMGWYRQAPGKERELVAVITSSGRTNYADSVKGRVTISRDNAKNTVYLQMNSLKPEDTAVYYCNKVSARYPYPLYDYWGQGTQVTVSS | high polyreactivity
QVQLVESGGGLVPARGSLRLSCAASGFIFSDNAMGWYRQAPGKERELVAAITDDGDTTYYADSVKGSFTISRDNAKNTVYLQMISLKPEDTAVYYCATEIEDVEDSGPYYYVGYGYWGQGTQVTVSS | high polyreactivity
QVQLVESGGGLVPARGSLRLSCAASGRIFRYYAMGWYRQAPGKERELVAAISGNGGRTSYADSVKGRFTISRDNAKITVSLQMTSLKPEDTAVYYCNAASVNGCRDFDYWGQGTQVTVSS | high polyreactivity
QVQLVESGGGLVPSGGSLRLSCAASGGIFYFNAMGWYRQAPGKERELVASITWSGGNTYYADSVKGRFTISRDNAKNTVSLQMNSLKPEDTAVYYSAADTQEYRPTYDYWGQGTQVTVSS | low polyreactivity
QVQLVESGGGLVQAAGSLLLSCAASGSTFYYYAMGWYRQAPRKDRELVAAISRGGGSTYYADSVKGRFTISRDNAKTTVYLQMNSLKPQDTAVYYCYVSRFDSWGQGTKVTVSS | high polyreactivity
QVQLVESGGGLVQAAGSLRLICAASGRIFDVYAMGWYRPAPGKERELVAAITWSGTSTYYADSVKGRFTISRDNAKNTVYLQMNSLKPEDTAVYYCAAEVAYTDTEYFWYYYWGQGTQVTVSS | high polyreactivity
QVQLVESGGGLVQAAGSLRLSCAASGFIFRYNVMGWYRQAPGKERELVAAISTSGGRTYFADSEKGRFTISRDNAKNTGYLQMNSLKPEDTEVYYCNAVKSEGQKVRDGYYWGQGTQVTVSS | high polyreactivity
QVQLVESGGGLVQAAGSLRLSCAASGLTFGGYPMGWYRQAPGKERELVAAISRSCGSTYYADSVKGRFTISRDNAKNTVYLQMNSLKPEDTAVSYCNAGRDTKYDYWGQGTQVTVSS | low polyreactivity
QVQLVESGGGLVQAAGSLRLSCAASGLTFRVNDMGWYRQAPGKERELVATISSGGSTYYADSVKGRFTISRDNAKNTVYLQMNSLKAVDTAVYYCATNSEGQESNSYYVWMGYWGQGTKVTVSS | low polyreactivity
QVQLVESGGGLVQAAGSLRLSCAASGRTFRAYAMGWYRQAPGKERELVAAISNRGTRTYYADSVKGRFTISRDNAKNTVYLQMNSLKPEDTAVYYCAAGNRVNRFDYWGQGTQVTVSS | high polyreactivity
QVQLVESGGGLVQAAGSLRLSCAASGSIFLSYAMGWYRQAPGKERELVAAITTDGGTNYADSVKGRFTISRDNAKNTVYLQMNSLKPEDSAVYYCAADSDPIPLIDYTLPMDYWGQGTQVTVSS | low polyreactivity
QVQLVESGGGLVQAAGSLRLTCAASGRTFYDNVKGWYRQAPGKERELVAAISSGGSTNYADSVKGRFTISRDNAKNTVYLQMNSLKPEDTAVYYCATTGGGGWAYEYWGQGTQVTVSS | low polyreactivity
QVQLVESGGGLVQAARSLRLSCAASGRIFNYYAMGWYRLAPGKERELVAAINSGGSTYADSVKGRFTISRDNAKNTVYLPMNSLKPEDTAVYYCAKDGQLQSGRERPSGYDHWGQGTQVTVSS | low polyreactivity
